What was measured:
[1] = biological target: γB2ΔICD-EC5-VenusΔN3C9-P3 (mouse) (UniProt Q91XX7); experiment: FRET or BRET; acceptor photobleaching at cell adhesion sites of co-cultured HEK293T cells individually expressing donor (mTQ2) and acceptor (Venus) constructs; trans interaction across cells
[2] = biological target: γB2ΔICD-EC5-Venus (mouse) (UniProt Q91XX7); experiment: as above

Substance | FRET efficiency [1] | FRET efficiency [2]
γB2ΔICD-EC1-G4S-mTQ2ΔC6 (from UniProt Q91XX7 1-738) (receptor) | 27.4% | 
γB2ΔICD-EC1-mTQ2 (from UniProt Q91XX7 1-738) (receptor) |  | 14.1%
